Reference: PMC12005765 (Advanced Science, 2025)

Assays:
[1] = biological target: CD3 epsilon-delta heterodimeric protein (Acro Biosystems) (Homo sapiens (assumed)) (UniProt P07766); assay: SPR; IgGs or Fc fusions captured on antihuman Fc polyclonal antibodies amine-coupled to a CM5 chip; spike trimer or CD3 epsilon-delta heterodimer injected; blank flow cell subtracted; 1:1 Langmuir model, simultaneous global fit of ka and kd, KD = kd/ka; BIAcore 2000 (methods) or BIAcore T100 (footnote of Table S3)
[2] = biological target: T1, CD3 epsilon-delta heterodimeric protein (Acro Biosystems) (Homo sapiens (assumed), UniProt P07766;P04234); assay: as above; conditions: both partners purified
T1 construct: also called recombinant CD3delta epsilon; CD3delta-epsilon
T1 sequence (P07766 23-126, stated change not applied, chain 1 of 2): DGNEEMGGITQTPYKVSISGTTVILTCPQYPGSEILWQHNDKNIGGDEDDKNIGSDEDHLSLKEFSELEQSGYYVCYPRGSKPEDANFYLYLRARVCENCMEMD
T1 sequence (P04234 22-171, stated change not applied, chain 2 of 2): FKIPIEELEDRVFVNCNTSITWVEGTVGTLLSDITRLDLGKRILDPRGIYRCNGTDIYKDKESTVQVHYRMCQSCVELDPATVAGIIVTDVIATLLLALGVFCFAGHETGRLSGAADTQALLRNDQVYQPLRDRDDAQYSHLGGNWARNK

## SC02, anti-S/CD3 bispecific CrossMab from CV3-25/UCHT1 (bispecific antibody)
[1]
  Kd: 0.29 nM
  koff: 0.000285 s⁻¹
  kon: 974000 M⁻¹ s⁻¹

B1: humanized UCHT1 (anti-CD3) (antibody, V domains shown)
VH: EVQLVESGGGLVQPGGSLRLSCAASGYSFTGYTMNWVRQAPGKGLEWVALINPYKGVSTYNQKFKDRFTISVDKSKNTAYLQMNSLRAEDTAVYYCARSGYYGDSDWYFDVWGQGTLVTVSS
VL: DIQMTQSPSSLSASVGDRVTITCRASQDIRNYLNWYQQKPGKAPKLLIYYTSRLESGVPSRFSGSGSGTDYTLTISSLQPEDFATYYCQQGNTLPWTFGQGTKVEIK
notes: also called anti-CD3 antibody
[2]
  Kd: 0.16 nM
